Data published in paper PMC5081515, “Crystal structures and inhibition of Trypanosoma brucei hypoxanthine–guanine phosphoribosyltransferase” (Scientific Reports, 2016).

How the values were obtained:
[1] = substrate: O=P(O)(O)OC[C@H]1O[C@H](OP(=O)(O)OP(=O)(O)O)[C@H](O)[C@@H]1O; assay: purified protein, by the assay type; conditions: other: 0.03 M phosphate buffer, 0.012 M MgCl2, 1 mM DTT, pH 7.4, 25 °C, bases at 500 μM PRib-PP, PRib-PP at 40 μM guanine
[2] = substrate: O=c1[nH]cnc2nc[nH]c12; assay: purified protein, by the assay type; conditions: other: 0.03 M phosphate buffer, 0.012 M MgCl2, 1 mM DTT, pH 7.4, 25 °C, bases at 500 μM PRib-PP, PRib-PP at 40 μM guanine

B1: TbrHGPRT (Trypanosoma brucei brucei) (protein)
chain: MEPACKYDFATSVLFTEAELHTRMRGVAQRIADDYSNCNLKPLENPLVIVSVLKGSFVFTADMVRILGDFGVPTRVEFLRASSYGHDTKSCGRVDVKADGLCDIRGKHVLVLEDILDTALTLREVVDSLKKSEPASIKTLVAIDKPGGRKIPFTAEYVVADVPNVFVVGYGLDYDQSYREVRDVVILKPSVYETWGKELERRKAAGEAKR
For B1, the Km [1] was 103 ± 16 µM, the Km [2] was 5.5 ± 0.3 µM and the kcat [2] was 17.1 s⁻¹. It also gave a kcat/Km [2] of 3.1e+06 M⁻¹ s⁻¹.
